The source of these data is paper PMC5462797, “A protein-protein interaction dictates Borrelial infectivity” (Scientific Reports, 2017).

The chains are these.
B1: BB0323 (residues 22–242) (domain or fragment)
chain: KTPPESRESKNAKIAQPDNKNFQLRDIKDIKNELIRERGHLFYSKEFNEAERLEEAMKQSFSKKKAIEGNEIALKVLERYKTIIRETREKKEKTNYLKENIEKYLNDAEANEAYIWIPLEIDEVNNLYFEATRKYKNYDLDNALDMYSKAFNRAQQAAKNAKEAKALKETDERMYKQLKALEAASNLPIYSNNKLIKPSPWNGRAFIKERNSHLNLLNTNK
notes: BB0323 of Borrelia burgdorferi, residues 22-242; also called BB0323 N2; BB0323^22-242

Data set [1] deals with the molecule itself. Description: SEC; analytical SEC of single proteins on Superdex 75 (10/300), 50 mM Tris-HCl pH 8.0, 0.15 M NaCl, 0.5 mM EDTA, 4 °C; BB0238 9-44 uM, BB0238^∆IM 10-40 uM, BB0323 (22-242) 8 uM; monomer-dimer. For orientation: Size exclusion chromatography separates by hydrodynamic size, large species first.
In the data set “BB0323 (residues 22–242)” the target is B1. Description: SEC; analytical SEC of ~1:1 mixtures: 10 uM BB0238-BB0323 on Superdex 200; ~9 uM BB0238^∆IM with 8 uM BB0323 22-242 on Superdex 75; 50 mM Tris-HCl pH 8.0, 0.15 M NaCl, 0.5 mM EDTA, 4 °C. The conditions noted are these: both partners purified.

One may read the stoichiometry N as the number of molecules, sites or subunits per partner or assembly. B1: in data set [1], the “stoichiometry N” value worked out at 2.

B2: BB0238 (purified recombinant, wild type) (natural protein)
chain: QGSSSYIDKQKELAIFYYEVGQRYINVGKIKKGKLFQAKALKIYPDLKKGFDIKLAVKELDARIKDDNPKVVMLEDIKLEEIPGIVHEKIEINDFTNAPKIEYIAQRERSKNQDKIIKFQFGKFARALISRNFDLFDSVIADKVNVMGQFESKNDFISTLSSASSKADADELEYLSVDDYYDLKSLKISKSNDTSFAVNVNAKKNDVTKNFPFWKERQTLIFTTEDDNNWFLSSIN
notes: BB0238 of Borrelia burgdorferi; monomer-dimer mixture in solution; also called BB0238 WT; intact BB0238
Consider B2, for which the “stoichiometry N” value in the data set with BB0323 (residues 22–242) is 1; in data set [1] it was 2.
